Test results as given in US20110110945A1, “Immunoglobulin Fusion Proteins and Methods of Making” (TransTech Pharma, Inc., priority 2007, published 2011).
“Also recorded” adds a separate entry of the source.

Legend:
[1] = Pharmacokinetic profile of TTP-4000 after IV injection; assay type: in vivo, monkeys; details: single IV bolus 5 mg/kg; plasma; once TTP-4000 has saturated its ligands; 2 animals; FIG. 11
Method: Following collection, the tubes were placed on wet ice (maximum 30 minutes) until centrifugation under refrigeration (at 2 to 8° C.) at 1500×g for 15 minutes. Each harvested plasma sample was then stored frozen (−70° C.±10° C.) until assayed for RAGE polypeptide using an ELISA at various time-points following the injection, as described in Example 6.
In FIG. 11 each curve represents a different animal under the same experimental conditions.
Initially, 50 uL of the RAGE specific monoclonal antibody 1HB1011 at a concentration of 10 ug/mL in 1×PBS pH 7.3 is coated on plates via overnight incubation. When ready for use, plates are washed three times with 300 uL of 1× Imidazole-Tween wash buffer and blocked with 1% BSA. […] The samples are allowed to incubate at room temperature for one hour. After incubation, the plates are plates are washed three times. A Goat Anti-human IgG1 1 (Sigma A3312) AP conjugate in 1×PBS with 1% BSA is added and allowed to incubate at room temperature for 1 hour. The plates are washed three times. Color was elucidated with paranitrophenylphosphate.

[2] = system: male C57BL/6 mice, cerebral ischemia/reperfusion; experiment: Animal model of stroke (ischemia and reperfusion, infarct volume); assay type: in vivo; details: mouse stroke model
Method: In this model, the middle carotid artery of a mouse is ligated and then reperfused to form an infarct.
In this model, the middle carotid artery of a mouse was ligated for 1 hour followed by 23 hours of reperfusion at which point the mice were sacrificed and the area of the infarct in the brain was assessed.
Mice were injected intraperitoneally, 1 hour after the initiation of ischemia. Mice were subjected to one hour of cerebral ischemia followed by 24 hours of reperfusion. To induce ischemia, each mouse was anesthetized and body temperature was maintained at 36-37° C. by external warming. The left common carotid artery (CCA) was exposed through a midline incision in the neck. […] After the nylon suture had been in place for 1 hour, the animal was re-anesthetized, rectal temperature was recorded and the suture was removed and the incision closed.
Infarct volume was determined by anesthetizing the animals with an intraperitoneal injection of sodium pentobarbital (50 mg/kg) and then removing the brains. […] The infarct area in each section was determined with a computer-assisted image analysis system, consisting of a Power Macintosh computer equipped with a Quick Capture frame grabber card, Hitachi CCD camera mounted on a camera stand. […] The images were captured and the total area of infarct was determined over the sections. […] The results are expressed as the mean±standard deviation (SD). […]

amphoterin = target: T1, amphoterin (Homo sapiens, UniProt P09429); experiment: In vitro ligand binding assay (ELISA), immobilized amphoterin; details: ligand 5 micrograms per well; dilutions of initial fusion protein solution; FIG. 7
T1 sequence (P09429 1-215): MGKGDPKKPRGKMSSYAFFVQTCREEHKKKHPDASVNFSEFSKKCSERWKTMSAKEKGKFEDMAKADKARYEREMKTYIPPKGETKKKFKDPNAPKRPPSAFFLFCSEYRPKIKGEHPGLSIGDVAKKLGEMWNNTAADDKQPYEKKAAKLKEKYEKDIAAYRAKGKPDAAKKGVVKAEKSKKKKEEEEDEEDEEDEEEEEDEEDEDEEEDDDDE
Method: For example, the fusion protein may be used in a binding assay to identify potential ligands that bind to the non-immunoglobulin protein. In one example embodiment of such a binding assay, a known ligand may coated onto a solid substrate (e.g., Maxisorb plates) at a biologically relevant concentration (e.g., about 5 micrograms per well), where each well contains a total volume of about 100 microliters (μL). The plates may be incubated at 4° C. overnight to allow the ligand to bind to the substrate. Alternatively, shorter incubation periods at higher temperature (e.g., room temperature) may be used. After a period of time to allow for the ligand to bind to the substrate, the assay wells may be aspirated and a blocking buffer (e.g., 1% BSA in 50 mM imidizole buffer, pH 7.2) may be added to block nonspecific binding. […] The fusion protein bound to the immobilized ligand may be detected in a variety of ways. […] The bound complex may be detected by adding a substrate for the secondary antibody complex, e.g., the alkaline phosphatase substrate, para-nitrophenylphosphate (PNPP), and measuring conversion of PNPP to para-nitrophenol (PNP) as an increase in absorbance at 405 nm. […] In the absence of ligand (i.e., coating with only BSA) there was no increase in absorbance. The binding assay of the present invention may be used to quantify ligand binding. […]

mice that have AD = experiment: Mice that have Alzheimer's Disease, treated for 3 months; assay type: in vivo; details: versus vehicle or human IgG negative control (IgG1)
Source text: Also, fusion proteins of the present invention comprising a RAGE ligand binding site may also be used to treat reduce amyloidosis and to reduce amyloid plaques and cognitive dysfunction associated with Alzheimer's Disease (AD).

B1: TTP-4000: RAGE fusion protein: V and C1 domains of human RAGE (amino acids 1-251) linked to hinge-less CH2 and CH3 of human IgG1; SEQ ID NO: 16/18 (protein)
chain 1: MAAGTAVGAWVLVLSLWGAVVGAQNITARIGEPLVLKCKGAPKKPPQRLEWKLNTGRTEAWKVLSPQGGGPWDSVARVLPNGSLFLPAVGIQDEGIFRCQAMNRNGKETKSNYRVRVYQIPGKPEIVDSASELTAGVPNKVGTCVSEGSYPAGTLSWHLDGKPLVPNEKGVSVKEQTRRHPETGLFTLQSELMVTPARGGDPRPTFSCSFSPGLPRHRALRTAPIQPRVWEPVPLEEVQLVVEPEGGAVAPPSVFLFPPKPKDTLMISRTPEVTCVVVDVSHEDPEVKFNWYVDGVEVHNAKTKPREEQYNSTYRVVSVLTVLHQDWLNGKEYKCKVSNKALPAPIEKTISKAKGQPREPQVYTLPPSRDELTKNQVSLTCLVKGFYPSDIAVEWESNGQPENNYKTTPPVLDSDGSFFLYSKLTVDKSRWQQGNVFSCSVMHEALHNHYTQKSLSLSPGK
chain 2: ENITARIGEPLVLKCKGAPKKPPQRLEWKLNTGRTEAWKVLSPQGGGPWDSVARVLPNGSLFLPAVGIQDEGIFRCQAMNRNGKETKSNYRVRVYQIPGKPEIVDSASELTAGVPNKVGTCVSEGSYPAGTLSWHLDGKPLVPNEKGVSVKEQTRRHPETGLFTLQSELMVTPARGGDPRPTFSCSFSPGLPRHRALRTAPIQPRVWEPVPLEEVQLVVEPEGGAVAPPSVFLFPPKPKDTLMISRTPEVTCVVVDVSHEDPEVKFNWYVDGVEVHNAKTKPREEQYNSTYRVVSVLTVLHQDWLNGKEYKCKVSNKALPAPIEKTISKAKGQPREPQVYTLPPSRDELTKNQVSLTCLVKGFYPSDIAVEWESNGQPENNYKTTPPVLDSDGSFFLYSKLTVDKSRWQQGNVFSCSVMHEALHNHYTQKSLSLSPGK
modifications: synthetic four domain RAGE-Fc IgG fusion protein; synthetic four domain RAGE-Fc IgG fusion protein having signal sequence removed
- terminal half-life [1]: greater than 300 hours
- reduction in infarct volume / area of infarct compared to sRAGE, in words [2]: significantly greater reduction in infarct volume; also recorded: more efficacious than sRAGE
- binding to immobilized amphoterin (increase in absorbance at 405 nm) (amphoterin): able to bind; also recorded: specifically interact
- amyloid beta (Aβ) plaques (mice that have AD): fewer amyloid beta (Aβ) plaques
- cognitive dysfunction (mice that have AD): less cognitive dysfunction
